Entries after “also recorded” stand apart in the source; their conditions may differ.

This is an account of results in patent US8114412B2, “T. cruzi-derived neurotrophic agents and methods of use therefor” (priority 1999, dated 2012).

In series [1] the test system is PC12 cells. Description: Neurite outgrowth assay in PC12 cells. Type of series: cell-based, rat. The conditions noted are these: neurite outgrowth assay, concentration not given. An excerpt:
(§1) PC12 cells were obtained from ATCC (Manassas, Va. (Accession No. CRL-1721)) and cultured on collagen-coated dishes in RPMI 1640 supplemented with 10% horse serum and 5% fetal bovine serum (Greene, L. A. and Tishler, A. S., Proc. Natl. Acad. Sci. USA, 73: 2424-2428 (1976)). For differentiation and survival experiments, cells were washed three times in serum-free RPMI/0.2% BSA, plated in the same medium in collagen-coated plastic dishes at 2×10^5/ml, without and with growth factors, TS, recombinant proteins, synthetic peptides, for the time and concentrations indicated in the Figures.
(§2) 96-well microtiter plates were coated overnight at 4° C. with the TS or peptides or fragments thereof, or with control proteins laminin (Ln) or bovine serum albumin (BSA) at 500 μg/ml. After removing the compounds, the plates were further incubated with 1% BSA for 1 hour at room temperature and immediately used as substratum for PC12 or N18 (Prasad, K. N., Biol Rev Camb Philos Soc, 66:431-451 (1991)) cells in serum-free RPMI/0.2% BSA. Neurite outgrowth was measured using a phase-contrast microscope 17 hours later.

The subject of the next series is N18 cells. Kind of series: Neurite outgrowth assay in N18 cells. It counts as cell-based. The conditions noted are these: immobilized proteins coated at 500 μg/ml, 17 hours (FIG. 3A). The protocol: FIG. 3A is a graph showing that neurite outgrowth in N18 cells is induced by immobilized laminin (Ln), immobilized TS and immobilized fragments of TS. Proteins were immobilized by incubating plates which contained wells filled with solutions of the proteins (protein concentration was 500 μg/ml) at 4° C. overnight. The protein solutions were removed and the plates were further incubated with 1% BSA at room temperature for one hour. N18 cells were cultured in the coated wells in serum-free RPMI-1640/0.2% BSA for 17 hours, and neurite outgrowth was measured by phase-contrast microscopy. […] Ln, laminin; TS, purified T. cruzi trans-sialidase; 7F, recombinant TS from clone 7F; 19Y, recombinant TS from clone 19Y; TS-F, recombinant fragment consisting of amino acid residues 33-666 of TS (SEQ ID NO:2); TS-CC-47, recombinant fragment consisting of amino acid residues 79-478 of TS (SEQ ID NO:2); TS-Cat-47, recombinant fragment consisting of amino acid residues 79-415 of TS (SEQ ID NO:2); BSA, bovine serum albumin.
as §2

Series [2] deals with PC12 cells. Kind of series: Trophic factor withdrawal-induced apoptosis of PC12 cells (DAPI/TUNEL). It counts as cell-based, rat. The conditions noted are these: serum-free RPMI-1640/0.2% BSA, 17 hours, DAPI or TUNEL.
Text: as §1
Cell staining with 4,6-diamino-2-phenylindole (DAPI). Cells were fixed with 4% formaldehyde in PBS for 5 minutes, washed with PBS, stained with 10 μg/ml DAPI (Sigma) for 2 minutes, washed with PBS, and visualized under UV light using a fluorescent microscope. About 300-400 cells were examined under the microscope to determine the percentage of apoptotic cells.
Cell DNA nick end labeling (TUNEL) (Gavrieli, Y., et al., J. Cell. Biol. 119: 493-501 (1992)) assay was performed using a kit purchased from Boehringer Mannheim as described by the manufacturer.
Protection against apoptosis of PC12 cells in serum-free medium containing a test agent (agent N)(e.g., protection induced by TS, TS fragments, NGF or other growth factors), was calculated by the formula: 100%-[(apoptosis(%) of cells kept in RPMI containing test agent N÷apoptosis (%) of cells kept in RPMI)×100%]. Testing the effect of wortmannin (Sigma) and LY294002 (Sigma) in inhibiting the neuroprotection of TS was performed following the protocol described by others (Yao and Cooper, Science, 267:2003-2006 (1995); D'Mello et al., J. Neurosci 17:1548-1560 (1997)). In brief, PC12 cells were switched from growth medium to RPMI without and with TS or various other growth factors. After 24 hr, wortmannin and LY294002 were added to the cultures. After another 24 hrs, cells were examined for apoptosis by the DAPI assay, as above.

The nature of another series: Trans-sialidase assay. It counts as biochemical. Here is the method: The trans-sialidase assay was performed as described (Scudder et al., J. Biol. Chem. 268:9886-9891 (1993)) with slight modifications. Various amounts of intact enzyme or enzyme fragments were added to 50 mM PBS, Ph 7.2, containing 15% fetal calf serum and […] of [^14C]N-acetyllactosamine (4×10^5 dpm), 50 μg BSA and 0.02% NaN3 in a volume of 60 μl. After incubation for a predetermined amount of time at room temperature, the reaction mixture was diluted to 1.0 ml with distilled water and applied to a column containing 1.0 ml Q-Sepharose equilibrated with water. Sialylated product was eluted with 1 M NaCi and quantified by scintillation counting.
TS enzymatic activity was measured by the sialylation of the acceptor ^14C-labeled N-acetyllactosamine on anion exchange resins (Scudder, P. et. al., J. Biol. Chem. 268:9886-9891 (1993)). Recombinant TSA-1, was expressed on insect sf9 cells and purified from serum-free medium by ion exchange chromatography (monoQ) and preparative SDS-PAGE (Wrightsman, R. A. et al., J. Immunol., 153:3148-3154 (1994).

Series [3] concerns peripheral blood mononuclear cells (PBMC). Kind of series: IL-6 secretion by PBMC (ELISA). Type of series: cell-based, human. On the set-up: IL-6 secretion by PBMC: dose or concentration left out as unconfirmed. The conditions noted are these: 24 hrs culture. Here is the method: (§3) Primary cultures of human intestinal microvascular endothelial cells (HIMEC) isolated from normal jejunal mucosa/submucosal tissue were prepared as described (Strong et al., Gastroenterology 114: 1244-1256 (1998)). The HIMEC were cultured in fibronectin-coated plasticware in MCDB medium (Sigma) supplemented with 20% FBS, 90 μg/ml heparin and 50 μg/ml endothelial cell growth factor (Sigma). T-24 cells (ATCC Accession No. HTB-4) were cultured in M199 medium supplemented with 10% FBS. PBMC were purified by Ficoll-Paque gradient as described (Current Protocols in Immunology, pp 7.1.1-7.1.2). Vero cells (ATCC Accession No. CCL-81) were grown in RPMI medium with 5% Nu serum and infected with the Silvio X-10/4 of T. cruzi as described previously (Chuenkova et al., J. Exp. Med. 181: 1693-1703, (1995)).
(§4) Endothelial cells and T-24 cells were plated on 24-well plates at a density of 1×10^3 cells/well, while peripheral blood mononuclear cells (PBMC) were plated in the similar wells at 1×10^6/well. Triplicat cultures of cells were incubated test agents for a predetermined amount of time. […] Cytokines and chemokines released in the culture supernatants were measured by ELISA assay following the instructions of the manufacturer (Endogen). The cytokines tested were IL-1β, IL-4, IL-8, IL-10, IL-12, IFN-γ, TNF-α, and the chemokines RANTES and MCP-1. Negative controls were cells incubated in medium containing polymixin B at 10 μg/ml, and positive controls were cells incubated with bacterial LPS at the low ng/ml range (for PBMC or HIMEC) or in the μg/ml range for carcinoma T-24 cells. In some experiments, IL-1β, or TNFα were used as positive control for cytokine release.
TR peptides (Table 2) were synthesized at the Tufts Synthesis Facility (Boston, Mass.). Each peptide was purified by HPLC, and the number of amino acids and molecular weight of each peptide verified by mass spectrometry. Peptides were dissolved in growth medium (10% FCS in RPMI) and added at various concentrations to 1×10^6 PBMC/well in 24-well plates. After 24 hrs, IL-6 was assayed by ELISA in the conditioned supernatants.

In series [4] the test system is human bladder carcinoma T-24 cell line. Description: IL-6 secretion by T-24 carcinoma cells (ELISA). It counts as cell-based. The conditions noted are these: 24 hours culture. The protocol: as §3, §4

B1: cruzipain: T. cruzi protease (protein, UniProt P25779 123-467, looked up)
Cruzipain: APAAVDWRARGAVTAVKDQGQCGSCWAFSAIGNVECQWFLAGHPLTNLSEQMLVSCDKTDSGCSGGLMNNAFEWIVQENNGAVYTEDSYPYASGEGISPPCTTSGHTVGATITGHVELPQDEAQIAAWLAVNGPVAVAVDASSWMTYTGGVMTSCVSEQLDHGVLLVGYNDSAAVPYWIIKNSWTTQWGEEGYIRIAKGSNQCLVKEEASSAVVGGPGPTPEPTTTTTTSAPGPSPSYFVQMSCTDAACIVGCENVTLPTGQCLLTTSGVSAIVTCGAETLTEEVFLTSTHCSGPSVRSSVPLNKCNRLLRGSVEFFCGSSSSGRLADVDRQRRHQPYHSRHRRL
As to B1, the “neurite outgrowth in PC12 cells” value in the series with PC12 cells [1] is given as “did not induce neurite extension”.

B2: TS-F-47: recombinant TS fragment, amino acid residues 79-666 of SEQ ID NO:34 (protein, listed as Trypanosoma cruzi)
chain: GDARDWDILLAVGEVTKSTAGGKITASIKWGSPVSLKKFFPAEMEGMHTNQFLGGAGVAIVASNGNLVYPVQVTNKRKQVFSKIFYSEDDGKTWKFGKGRSDFGCSEPVALEWEGKLIINTRVDWKRRLVYESSDMEKPWVEAVGTVSRVWGPSPKSNQPGSQTSFTAVTIEGMRVMLFTHPLNFKGRCVRDRLNLWLTDNQRIYNVGQVSIGDENSAYSSVLYKDDKLYCLHEINTDEVYSLVFARLVGELRIIKSVLRSWKNWTATCPAFAPLLIQPLRRQRVVVVPLSPRLVLLAFCRQRLPKRMGGSYRCVNASTANAERVRNGLKFAGVGGGALWPVSQQGQNQRYRFANHAFTLVASVTIHEAPRAASPLLGASLDSSGGKKLLGLSYDEKHQWQPIYGSTPVTPTGSWETGKRYHLVLTMANKIGSVYIDGELLEGSGQTVVPDGRTPDISHFYVGGYKRSDMPTISHVTVNNVLLYNRRQLNTEEIRTLFLSQDLIGTEAHMDSSSDSSAHSTPSTPADSSAHSTPSTPVDSSAHSTPSTPADSSAHGTPSTPVDSSAHGTPSTPADSSAHGTPSTPVDS
Consider B2, for which, in the series with N18 cells, the “neurite outgrowth in N18 cells” value is “as effective as the native enzyme in stimulating neurite outgrowth; also recorded: active”. In addition, the “protection of PC12 cells from apoptosis induced by trophic factor withdrawal” value (from here on “protection of PC12 cells”) with PC12 cells [2] is “active”. Further, the trans-sialidase enzymatic activity entry in “Trans-sialidase assay” was “enzymatically inactive”.

B3: TS-CC-47: recombinant fragment consisting of amino acid residues 79-478 of TS (SEQ ID NO:2) (protein, listed as Trypanosoma cruzi)
chain: MVAIADARYDTSNDNSLIDTVAKYSVDDGETWETQIAIKNSRVSSVSRVVDPTVIVKGNKLYVLVGSYYSSRSYWSSHGDARDWDILLAVGEVTKSTAGGKITASIKWGSPVSLKKFFPAEMEGMHTNQFLGGAGVAIVASNGNLVYPVQVTNKKKQVFSKIFYSEDDGKTWKFGKGRSDFGCSEPVALEWEGKLIINTRVDWKRRLVYESSDMEKPWVEAVGTVSRVWGPSPKSNQPGSQSSFTAVTIEGMRVMLFTHPLNFKGRWLRDRLNLWLTDNQRIYNVGQVSIGDENSAYSSVLYKDDKLYCLHEINTDEVYSLVFARLVGELRIIKSVLRSWKNWDSHLSSICTPADPAASSSESGCGPAVTTVGLVGFLSGNASQNVWEDAYRCVNASTAN
Regarding B3, the “neurite outgrowth in N18 cells” value with N18 cells is reported as “did not substantially reduce neurite outgrowth; also recorded: active”. In the series with PC12 cells [2], the “protection of PC12 cells” value was “active”.

B4: TS-Cat-47: recombinant fragment consisting of amino acid residues 79-415 of TS (SEQ ID NO:2) (protein, listed as Trypanosoma cruzi)
chain: MVAIADARYDTSNDNSLIDTVAKYSVDDGETWETQIAIKNSRVSSVSRVVDPTVIVKGNKLYVLVGSYYSSRSYWSSHGDARDWDILLAVGEVTKSTAGGKITASIKWGSPVSLKKFFPAEMEGMHTNQFLGGAGVAIVASNGNLVYPVQVTNKKKQVFSKIFYSEDDGKTWKFGKGRSDFGCSEPVALEWEGKLIINTRVDWKRRLVYESSDMEKPWVEAVGTVSRVWGPSPKSNQPGSQSSFTAVTIEGMRVMLFTHPLNFKGRWLRDRLNLWLTDNQRIYNVGQVSIGDENSAYSSVLYKDDKLYCLHEINTDEVYSLVFARLVGELRIIKSVL
For B4, the “neurite outgrowth in PC12 cells” value in the series with PC12 cells [1] is reported as “did not promote neurite outgrowth”. In the series on N18 cells, the “neurite outgrowth in N18 cells” value was “inactive in stimulating neurite outgrowth”. For the same molecule, the “protection of PC12 cells” value in the series on PC12 cells [2] was “promoted the survival of the PC12 cells”.

B5: TS-H32 (protein, listed as Trypanosoma cruzi)
chain: KKKQVFSKIFYSEDDGKTWKFGEGRSAFGCSEAVALEWEGKLIINTRVDYRRRLVYESSDMGNTWLEAVGTLSRVWGPSPKSNQPGSQSSFTAVTIEGMRVMLFTHPLNFKGRWLRDRLNLWLTDNQRIYNVGQVSIGDENSAHSSVLYKDDKLYCLHEINSNEVYSLVFARLVGELRIIKSVLQSWKNWDSHLSSICTP
In the case of B5, the trans-sialidase enzymatic activity entry in “Trans-sialidase assay” was “enzymatically-inactive”. Moreover, the “IL-6 secretion by PBMC” value in series [3] was “stimulating IL-6 secretion”. For the same molecule, in series [4], the “IL-6 secretion by T-24 cells” value is listed as “stimulating IL-6 secretion”.
